One substance from paper PMC8943035 can be followed below.

The target of this test is muscle RAS oncogene homolog (MRAS) fused to mCherry, expressed from pmCherry-MRAS (UniProt O14807). The test is described as follows: FRET or BRET; FRET between GFP (donor, excited at 488 nm) and mCherry (acceptor, emission 610 nm) fusion proteins, imaged in MCF-7 cells. Background: Bioluminescence resonance energy transfer reports proximity on the nanometre scale.

“G-protein gamma subunit 2 (GNG2) fused to EGFP, expressed from pEGFP-GNG2 (from UniProt P59768 1-71) (natural protein)” displayed an FRET efficiency of 11%.
